Experimental data published in US5622933A, “Multiple branch peptide constructions for use against HIV” (priority 1993, dated 1997).
Values joined by “and” are separate entries in the source; they are usually repeats but may differ in a detail not shown here. Identical values can stand only once. “Also recorded” adds a separate entry of the source. Ends that are not written are not given here.

Columns and labels:
GalCer receptor = assay: Binding of gp120 to GalCer (HPTLC binding assay)
Description: In another experiment with the same MBPCs, the effect of MBPCs on the binding of gp120 to GalCer was analyzed using a high performance thin layer chromatography (HPTLC) binding assay. MBPCs (10^-4 M) were preincubated with GalCer for 1 hour at room temperature. After thorough washing, the HPTLC plates were incubated with HIV-1 recombinant gp120 (2.5 ug/ml) followed by rabbit anti-gp120 and ^125 I-goat anti-rabbit IgG. The plates were washed in PBS and exposed to Amersham Hyperfilm MP for 8 hours. As shown in FIG. 5B treatment of HT-29 cells with active MBPCs protected the cells from infection by HIV-1 (NDK isolate). This antiviral effect was correlated with its ability to block the binding of gp120 to GalCer.

HIV-1 or HIV-2 = assay: Infection of human PBLs (RT activity, p24gag); type: cell-based; settings: MBPC 10^-5 M; days 10 and 13 after infection; culture supernatants
Description: Peripheral blood lymphocytes (PBLs) were obtained from healthy donors, stimulated with phytohemagglutinin, and cultivated in RPMI 1640 containing 10% fetal calf serum and interleukin-2 (complete medium). Samples of 6×10^6 cells/ml were either treated or not treated with the indicated MBPC at a concentration of 10^-5 M and exposed to HIV-1 or HIV-2 (100 TCID50) for 1 hour at 37° C. in the continued presence of MBPCs. After thorough washing, PBLs were cultured in complete medium with 10^-5 M of the corresponding MBPC. The state of infection was assessed by determination of RT activity (for both HIV-1 and HIV-2 isolates) and HIV-1 p24^gag measurements (Coulter kit, cut-off 10 pg/ml) in the case of HIV-1 isolates 10 days post-infection. The MBPC treatment used were as follows: 1-none; 2- [GPGRAF]8 -MLC; 3-[[…]]4 -MLC; 4- [[…]]4 -MLC (a non-HIV related MBPC) (MLC indicates a core lysine structure). The results shown in FIGS. 2A-2C are representative of three separate experiments. The nature of the viral isolates used was checked by PCR (HIV-1 versus HIV-2 isolates) and RIPA for discriminating between HIV-1 (LAI) and HIV-1 (NDK).

C57/BL6 black mice = assay: Immunogenicity in mice (serum ELISA for anti-MBPC3 antibody); type: in vivo, mouse
Description: The injection route was intraperitoneal. The blood samples were collected by sub-orbital eye punction. The blood samples were left for 1 hour at 37° C., then overnight at 4° C., and the supernatants (serum samples) thus obtained were separated from the pellets. Sera were tested by ELISA, looking for specific anti-MBPC3 antibody.
[…] After saturation with 400 μL of casein (5 g/100 ml), different serum dilutions were added for 2 hours at 37° C. The controls were sera from non-immunized rabbits and mice. After rinsing (5×), 50 μl of 1:5000 of peroxidase-labeled swine anti-rabbit IgG or anti-mouse IgG (Dakopatts, Copenhagen, Denmark) were added for 1 hour at 37° C. After further rinsing (5×), 100 μl of ortho-phenylenediamine were added for 30 min in the dark at room temperature. The reaction was stopped by adding 50 μl of 4N sulfuric acid, and optical density (OD) ratios were determined at 492/620 nm.

HIV-2 (ROD) = assay: Fusion between chronically infected CEM cells and MT-2 cells; type: cell-based; settings: separate tests
HIV = assay: Infection of HT-29 human colon cells through the GalCer receptor; type: cell-based
Description: The activity of MBPCs was evaluated on this alternative infection route as follows: HT-29 cells (5×10^5 cells) were incubated with MBPCs (5×10^-6 M) for 45 minutes and subsequently exposed to 100 TCID50 of HIV-1 (LAI), HIV-1 (NDK) or HIV-2 (ROD) for 1 hour at 37° C. The residual inoculum was inactivated by three successive trypsinations and infection was assessed by: i) direct measurement of HIV-1 p24^gag (for HIV-1 isolates) and RT activity (for HIV-1 and HIV-2 isolates) in the culture supernatants; ii) co-cultivation with human PBLs. The cells were treated with the MBPCs as follows: 1- none; 2- [GPGRAF]8 -MLC; 3- [GPGRAF]8 -MLCD; 4- [GPG(R)DAF]8 -MLC; 5- [GPGRAF]16 -MLC; 6- [[…]]4 -MLC; and 7- [[…]]4 -MLC, with all amino acids in L form unless noted otherwise. The results shown in FIG. 5A, which correspond to infection with HIV-1 (NDK), are representative of three separate experiments and the MBPC used is indicated by the number on the x-axis. The concentration of p24^gag (pg/ml) was measured during the co-culture experiment with PBLs (+++, >10 ng/ml 10 days post-infection; ++, >1 ng/ml 13 days post-infection; +, >1 ng/ml 16 days post-infection; -, no detectable p24^gag 1 month post-infection). Similar results were obtained with HIV-1 (LAI) and HIV-2 (ROD).

HIV-1 (LAI) = assay: Fusion between chronically infected CEM cells and MT-2 cells; type: cell-based; settings: separate tests
8E5 cells = assay: Toxicity in the cell fusion test (MTT assay or trypan blue exclusion); type: cell-based; settings: 5 × 10^-5 M; listed as [RKSIHIGPGRAFYT]4 -MLC

(GPGRAF)8 -(K)4 -(K)2 -K-βA-OH [MBPC.3]
binding to / activity on the Galactosyl Ceramide receptor (GalCer receptor): bind to the second receptor | RT activity lower in MBPCs-treated samples than control samples (HIV-1 or HIV-2): more than 90% | titers of anti-GPGRAF antibodies (C57/BL6 black mice; mice injected): did not produce significant titers | optical density (OD) ratio 492/620 nm (×10^3) (C57/BL6 black mice; plate 1, mouse serum 10^-2, coat 0.5 μg MBPC.3/ml): 382 and 381 | optical density (OD) ratio 492/620 nm (×10^3) (C57/BL6 black mice; plate 1, mouse serum 10^-2, coat 1 μg MBPC.3/ml): 444 and 419 | optical density (OD) ratio 492/620 nm (×10^3) (C57/BL6 black mice; plate 1, mouse serum 10^-2, coat 5 μg MBPC.3/ml): 1045 and 933 | optical density (OD) ratio 492/620 nm (×10^3) (C57/BL6 black mice; plate 1, mouse serum 10^-2, coat 10 μg MBPC.3/ml): 1162 and 1199 | optical density (OD) ratio 492/620 nm (×10^3) (C57/BL6 black mice; plate 1, mouse serum 10^-3, coat 0.5 μg MBPC.3/ml): 128 and 135 | optical density (OD) ratio 492/620 nm (×10^3) (C57/BL6 black mice; plate 1, mouse serum 10^-3, coat 1 μg MBPC.3/ml): 126 and 111 | optical density (OD) ratio 492/620 nm (×10^3) (C57/BL6 black mice; plate 1, mouse serum 10^-3, coat 5 μg MBPC.3/ml): 285 and 236 | optical density (OD) ratio 492/620 nm (×10^3) (C57/BL6 black mice; plate 1, mouse serum 10^-3, coat 10 μg MBPC.3/ml): 339 and 291 | optical density (OD) ratio 492/620 nm (×10^3) (C57/BL6 black mice; plate 1, mouse serum 10^-4, coat 0.5 μg MBPC.3/ml): 56 and 38 | optical density (OD) ratio 492/620 nm (×10^3) (C57/BL6 black mice; plate 1, mouse serum 10^-4, coat 1 μg MBPC.3/ml): 50 and 51 | optical density (OD) ratio 492/620 nm (×10^3) (C57/BL6 black mice; plate 1, mouse serum 10^-4, coat 5 μg MBPC.3/ml): 121 and 132 | optical density (OD) ratio 492/620 nm (×10^3) (C57/BL6 black mice; plate 1, mouse serum 10^-4, coat 10 μg MBPC.3/ml): 172 and 138 | optical density (OD) ratio 492/620 nm (×10^3) (C57/BL6 black mice; plate 2, mouse serum 10^-2, coat 1 μg MBPC.3/ml): 381 and 429 | optical density (OD) ratio 492/620 nm (×10^3) (C57/BL6 black mice; plate 2, mouse serum 10^-2, coat 5 μg MBPC.3/ml): 1514 and 1344 | optical density (OD) ratio 492/620 nm (×10^3) (C57/BL6 black mice; plate 2, mouse serum 10^-2, coat 10 μg MBPC.3/ml): 1540 and 1457 | optical density (OD) ratio 492/620 nm (×10^3) (C57/BL6 black mice; plate 2, mouse serum 10^-3, coat 0.5 μg MBPC.3/ml): 47 and 82 | optical density (OD) ratio 492/620 nm (×10^3) (C57/BL6 black mice; plate 2, mouse serum 10^-3, coat 1 μg MBPC.3/ml): 54 and 65 | optical density (OD) ratio 492/620 nm (×10^3) (C57/BL6 black mice; plate 2, mouse serum 10^-3, coat 5 μg MBPC.3/ml): 263 and 273 | optical density (OD) ratio 492/620 nm (×10^3) (C57/BL6 black mice; plate 2, mouse serum 10^-3, coat 10 μg MBPC.3/ml): 334 and 291 | optical density (OD) ratio 492/620 nm (×10^3) (C57/BL6 black mice; plate 2, mouse serum 10^-4, coat 1 μg MBPC.3/ml): 15 and 17 | optical density (OD) ratio 492/620 nm (×10^3) (C57/BL6 black mice; plate 2, mouse serum 10^-4, coat 5 μg MBPC.3/ml): 88 and 97 | optical density (OD) ratio 492/620 nm (×10^3) (C57/BL6 black mice; plate 2, mouse serum 10^-4, coat 10 μg MBPC.3/ml): 132 and 188 | optical density (OD) ratio 492/620 nm (×10^3) (C57/BL6 black mice; plate 3, mouse serum 10^-2, coat 0.5 μg MBPC.3/ml): 204 and 198 | optical density (OD) ratio 492/620 nm (×10^3) (C57/BL6 black mice; plate 3, mouse serum 10^-2, coat 1 μg MBPC.3/ml): 241 and 200 | optical density (OD) ratio 492/620 nm (×10^3) (C57/BL6 black mice; plate 3, mouse serum 10^-2, coat 5 μg MBPC.3/ml): 636 and 630 | optical density (OD) ratio 492/620 nm (×10^3) (C57/BL6 black mice; plate 3, mouse serum 10^-2, coat 10 μg MBPC.3/ml): 639 and 664 | optical density (OD) ratio 492/620 nm (×10^3) (C57/BL6 black mice; plate 3, mouse serum 10^-3, coat 0.5 μg MBPC.3/ml): 48 and 49 | optical density (OD) ratio 492/620 nm (×10^3) (C57/BL6 black mice; plate 3, mouse serum 10^-3, coat 1 μg MBPC.3/ml): 50 and 53 | optical density (OD) ratio 492/620 nm (×10^3) (C57/BL6 black mice; plate 3, mouse serum 10^-3, coat 5 μg MBPC.3/ml): 159 and 163 | optical density (OD) ratio 492/620 nm (×10^3) (C57/BL6 black mice; plate 3, mouse serum 10^-3, coat 10 μg MBPC.3/ml): 172 and 168 | optical density (OD) ratio 492/620 nm (×10^3) (C57/BL6 black mice; plate 3, mouse serum 10^-4, coat 0.5 μg MBPC.3/ml): 22 and 21 | optical density (OD) ratio 492/620 nm (×10^3) (C57/BL6 black mice; plate 3, mouse serum 10^-4, coat 1 μg MBPC.3/ml): 22 | optical density (OD) ratio 492/620 nm (×10^3) (C57/BL6 black mice; plate 3, mouse serum 10^-4, coat 5 μg MBPC.3/ml): 83 and 84 | optical density (OD) ratio 492/620 nm (×10^3) (C57/BL6 black mice; plate 3, mouse serum 10^-4, coat 10 μg MBPC.3/ml): 85 and 84 | optical density (OD) ratio 492/620 nm (×10^3) (C57/BL6 black mice; plate 4, mouse serum 10^-2, coat 0.5 μg MBPC.3/ml): 495 and 468 | optical density (OD) ratio 492/620 nm (×10^3) (C57/BL6 black mice; plate 4, mouse serum 10^-2, coat 1 μg MBPC.3/ml): 553 and 439 | optical density (OD) ratio 492/620 nm (×10^3) (C57/BL6 black mice; plate 4, mouse serum 10^-2, coat 5 μg MBPC.3/ml): 1233 and 1336 | optical density (OD) ratio 492/620 nm (×10^3) (C57/BL6 black mice; plate 4, mouse serum 10^-2, coat 10 μg MBPC.3/ml): 1454 and 1340 | optical density (OD) ratio 492/620 nm (×10^3) (C57/BL6 black mice; plate 4, mouse serum 10^-3, coat 0.5 μg MBPC.3/ml): 90 and 95 | optical density (OD) ratio 492/620 nm (×10^3) (C57/BL6 black mice; plate 4, mouse serum 10^-3, coat 1 μg MBPC.3/ml): 83 and 88 | optical density (OD) ratio 492/620 nm (×10^3) (C57/BL6 black mice; plate 4, mouse serum 10^-3, coat 5 μg MBPC.3/ml): 299 and 297 | optical density (OD) ratio 492/620 nm (×10^3) (C57/BL6 black mice; plate 4, mouse serum 10^-3, coat 10 μg MBPC.3/ml): 334 and 318 | optical density (OD) ratio 492/620 nm (×10^3) (C57/BL6 black mice; plate 4, mouse serum 10^-4, coat 0.5 μg MBPC.3/ml): 28 | optical density (OD) ratio 492/620 nm (×10^3) (C57/BL6 black mice; plate 4, mouse serum 10^-4, coat 1 μg MBPC.3/ml): 27 and 21 | optical density (OD) ratio 492/620 nm (×10^3) (C57/BL6 black mice; plate 4, mouse serum 10^-4, coat 5 μg MBPC.3/ml): 124 and 103 | optical density (OD) ratio 492/620 nm (×10^3) (C57/BL6 black mice; plate 4, mouse serum 10^-4, coat 10 μg MBPC.3/ml): 133 and 113 | block of fusion (HIV-2 (ROD)): able to block the fusion | block of the infectivity of HIV on human colon cells (HIV): completely block | block of fusion (HIV-1 (LAI)): able to block the fusion

(RKSIHIGPGRAFYT)4 -(K)2 -K-βA-OH (also: four copies on lysine core (K)2-K-βA-OH) [MBPC.5, tetradecapeptide MBPC]
RT activity lower in MBPCs-treated samples than control samples (HIV-1 or HIV-2): more than 90% | Toxicity (8E5 cells): Toxic; also recorded: induced some toxicity
